Assay results published in US20030104443A1, “AFAP sequences, polypeptides, antibodies and methods” (University of West Virginia, priority 2001, published 2003).

Tests used:
actin filaments [1] = test: Low-speed cosedimentation assay (20,800×g), actin filament cross-linking; assay type: biochemical; conditions: 0.5 μM protein, 2 μM actin filaments; FIG. 13A
Text: (§1) Binding constants were derived from the sedimentation of rAFAP-110 by actin. Accordingly, rAFAP-110 in the pellet and supernatant correspond to the bound and free rAFAP-110, respectively. The sum of densities of rAFAP-110 bands in the supernatant and pellet corresponds to the total mass of rAFAP-110 in the sample. The data representing the bound rAFAP-110 as a function of free rAFAP-110 were fit by nonlinear least squares to both the Langmuir (B=BMAX/(1+Kd/F)) and […] 2 μM F-actin filaments and different concentrations of rAFAP-110 in 5 mM MgCl2, 1 mM EGTA, 2 mM ATP, and 50 mM KCl at 20,800×g for 30 min at 4° C. After the centrifugation, both supernatant and pellets were analyzed by SDS-PAGE gel. Confocal microscopy assays were performed as described (Ishikawa et al., 1998, J. Biol. Chem., 273:26991-26997). Briefly, 2 μM F-actin containing 10% rhodamine-phalloidin-labeled F-actin were mixed with different concentrations of rAFAP-110 or other purified recombinant proteins in 5 mM MgCl2, 1 mM EGTA, 2 mM ATP, and 50 mM KCl at RT for 30 min. After the incubation, the reactions were applied between glass slides and coverslips and observed under confocal microscopy (Zeiss, Oberkochen, Germany). Samples for negative staining were adsorbed to grids coated with nitrocellulose and stabilized with carbon (Ernest F. Fullam, Latham, N.Y.). Unbound protein was removed by successive washes with buffer and water before staining with 1% uranylacetate (Cooper and Pollard, 1982, Methods Enzymol., 85(PtB), 182-210; Pollard and Cooper, 1982, Methods Enzymol., 85(PtB), 211-233).
Actin filaments are unable to efficiently pellet at 20,800×g unless cross-linked to form heavier particles (either isotropic networked or bundled actin filaments; Cooper and Pollard, 1982, supra; Pollard and Cooper, 1982, supra; Meyer et al., 1990, J. Cell. Biol. 110:2013-2024; Wachsstock et al., 1993, Biophys. J., 65: 205-214; Rybakova et al., 1996, J. Cell. Biol., 135:661-672). […] The purified recombinant proteins were incubated with actin filaments and then were centrifuged at 20,800×g. Both supernatants (S) and pellets (P) were applied to SDS-PAGE gel, followed by Coomassie staining. 1, rAFAP-110 with actin filaments; 2, rAFAP-110^Δcterm with actin filaments; 3, rAFAP-110 only; 4, rAFAP-110^Δcterm only; 5, actin filaments only. FIG. 8B is a graph of cross-linked actin filaments versus free rAFAP-110. rAFAP-110 at 0.05,0.11,0.21,0.43, 0.86, and 2.14 μM was incubated with the 2 μM concentration of G-actin polymerized into actin filaments. After the incubation, the reactions were centrifuged at 20,800×g. Both supernatants and pellets were applied to SDS-PAGE gel, followed by the Western blot analysis to detect rAFAP-110 and Coomassie blue staining to detect actin, respectively. The data of cross-linked actin filaments and free rAFA-110 were gathered by scanning densitometry of SDS-PAGE gel analysis.

actin filaments [2] = test: Confocal microscopy of rhodamine-phalloidin-labeled actin filaments; assay type: biochemical; conditions: 0.5 μM protein, 2 μM actin filaments; FIG. 13B
Text: as §1
To further test AFAP-110's capability to cross-link actin filaments, we analyzed rhodamine-phalloidin-labeled actin filaments for cross-linking by confocal microscopy. In FIG. 9A, purified rAFAP-110 or rAFAP-110^Δcterm were incubated with rhodamine-phalloidin-labeled actin filaments. […] 1, actin filaments only; 2, rAFAP-110 with actin filaments; 3, rAFAP-110^Δcterm with actin filaments. FIG. 9B presents confocal microscopy images. Different concentrations of α-actinin (top two panels, low=0.0625 μM and high=1.25 μM) and rAFAP-110 (bottom two panels, low=0.106 μM and high=2.1 μM) were incubated with rhodamine-phalloidin-labeled actin filaments. […] Actin filaments labeled with rhodamine-phalloidin appeared uniformly fluorescent in the absence of an actin binding protein (FIG. 9A1). […] Electron microscopy was used to confirm rAFAP-110's ability to cross-link actin filaments.

B1: PKCα phosphorylated rAFAP-110: rAFAP-110 phosphorylated with recombinant PKCα (protein, UniProt Q90738 1-729, looked up)
Actin filament-associated …: MEELIVELRLFLELLDHEYLTSTVREKKAVITNILLRIQSSKGFEIKEHVQKPEVANSLPAPPQMPLPEIPQQWLPPDNGPPPLPTSSLPEGYYEEAVPVSPGKAPEYITSNYDSDAMSSSYESYDEEEEDGKGKKMRHQWPSEEASMDLVKDAKICAFLLRKKRFGQWTKLLCVIKENKLLCYKSSKDQQPQMELLLNDCSITYIPKDSKKKKHELKISHQGADALVLAVQSKEQAEQWLKVIKDVCSNCTGTVDSDGPLSSSPVHKTELEKKLSSERPSSDGEGAVENGITTVCNGKEQVKRKKSSKTEAKGTVTKVTGKKITKIIGLGKKKPSTDEQTSSAEEDVPTCGYLNVLSNNRWRERWCRVKDNKLIFHKDRTDLKTHIVSIPLRGCEVIPGLDSKHPLTFRLLRNGQEVAVLEASSSEDMGRWIGMLLAETGSSTDPGALHYDYIDVEMTASVIQAAKQTFCFMNRRVISTNPYRGSTANGYACPSGMALHYDDVPCINGSFKGKKPPATANGITGKVRTLNSQPKKPESVSCVKRTASNAEQYKYGKNRVEAVAKRLQSKEEELLKRKEALRNRLAQLRKERKDLRAAIEVNAGRKTQVILEDKLKKLEEECKTKEAERVNLELELTEVKESLKKALAGGITLGLAIEPKSGTSSPQSPIFKHRTLENSPISSCDTSDTECSIPVNSAAALKRPPSSNNSPCRGHVLRKAKEWEMKNGT
modifications: PKCalpha phosphorylated
notes: rAFAP-110 phosphorylated with recombinant PKCα
ability to coprecipitate actin filaments compared with rAFAP-110 (actin filaments [1]): increased the ability of rAFAP-110 to coprecipitate actin filaments
confocal fluorescence pattern of actin filaments (actin filaments [2]): large aggregates of fluorescence
